Laboratory results taken from patent US20100330107A1.

How the values were obtained:
24P4C12 (human) [1] = target: 24P4C12 (human) (UniProt Q53GD3); experiment: FACS on LNCaP cells, ADC at 106.667 nM, anti-hIgG-PE detection
24P4C12 (human) [2] = target: 24P4C12 (human) (UniProt Q53GD3); experiment: FACS saturation binding on LNCaP cells with endogenous 24P4C12, one site binding fit
24P4C12 (human) [3] = target: 24P4C12 (human) (UniProt Q53GD3); experiment: FACS on LNCaP cells, ADC at 7.901 nM, anti-hIgG-PE detection
24P4C12 (human) [4] = target: 24P4C12 (human) (UniProt Q53GD3); experiment: FACS on LNCaP cells, ADC at 2.634 nM, anti-hIgG-PE detection
24P4C12 (human) [5] = target: 24P4C12 (human) (UniProt Q53GD3); experiment: FACS on LNCaP cells, ADC at 0.293 nM, anti-hIgG-PE detection
24P4C12 (human) [6] = target: 24P4C12 (human) (UniProt Q53GD3); experiment: FACS on LNCaP cells, ADC at 71.111 nM, anti-hIgG-PE detection
24P4C12 (human) [7] = target: 24P4C12 (human) (UniProt Q53GD3); experiment: FACS on LNCaP cells, ADC at 0.033 nM, anti-hIgG-PE detection
24P4C12 (human) [8] = target: 24P4C12 (human) (UniProt Q53GD3); experiment: FACS on LNCaP cells, ADC at 160.000 nM, anti-hIgG-PE detection
24P4C12 (human) [9] = target: 24P4C12 (human) (UniProt Q53GD3); experiment: FACS on LNCaP cells, ADC at 0.098 nM, anti-hIgG-PE detection
24P4C12 (human) [10] = target: 24P4C12 (human) (UniProt Q53GD3); experiment: FACS on LNCaP cells, ADC at 23.704 nM, anti-hIgG-PE detection
24P4C12 (human) [11] = target: 24P4C12 (human) (UniProt Q53GD3); experiment: FACS on LNCaP cells, ADC at 0.011 nM, anti-hIgG-PE detection
24P4C12 (human) [12] = target: 24P4C12 (human) (UniProt Q53GD3); experiment: FACS on LNCaP cells, ADC at 0.878 nM, anti-hIgG-PE detection

Chain of UniProt Q53GD3 (Q53GD3 whole entry): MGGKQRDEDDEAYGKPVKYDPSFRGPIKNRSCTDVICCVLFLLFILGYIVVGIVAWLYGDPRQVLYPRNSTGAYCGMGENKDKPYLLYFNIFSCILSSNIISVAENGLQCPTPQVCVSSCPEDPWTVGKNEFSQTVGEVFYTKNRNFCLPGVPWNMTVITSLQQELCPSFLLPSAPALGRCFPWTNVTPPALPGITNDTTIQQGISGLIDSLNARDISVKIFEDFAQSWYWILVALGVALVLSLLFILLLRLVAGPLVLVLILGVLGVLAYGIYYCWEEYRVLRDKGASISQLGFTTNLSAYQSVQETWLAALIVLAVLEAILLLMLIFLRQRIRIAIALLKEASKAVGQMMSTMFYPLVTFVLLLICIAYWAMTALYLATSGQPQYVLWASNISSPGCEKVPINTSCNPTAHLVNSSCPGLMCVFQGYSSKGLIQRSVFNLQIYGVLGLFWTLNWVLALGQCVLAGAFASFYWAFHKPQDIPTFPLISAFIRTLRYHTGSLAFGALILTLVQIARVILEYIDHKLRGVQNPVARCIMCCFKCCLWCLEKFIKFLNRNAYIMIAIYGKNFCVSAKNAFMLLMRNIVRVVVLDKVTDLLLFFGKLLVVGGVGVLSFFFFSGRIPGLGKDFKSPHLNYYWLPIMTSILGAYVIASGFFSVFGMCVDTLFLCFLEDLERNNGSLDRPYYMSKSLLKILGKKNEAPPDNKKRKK

B1: Ha5-1(5)2.1vcMMAE (antibody, human IgG2, kappa, V domains shown)
VH: QVQLVESGGGVVQPGRSLRLSCAASGFTFSSYGMHWVRQAPGKGLEWVAVMSYDGSKKFYTDSVKGRFTISRDNSKNTLYLQMNSLRAEDTAVYYCARDGGDYVRYHYYGMDVWGQGTTVTVSS
VL: DIQMTQSPSTLSASIGDRVTITCRASQGISYYLAWYQQKPGKIPKLLIYDTSSLQSGVPSRFSGSRSGTDLSLTISSLQPEDVATYYCQRYDSAPLTFGGGTKVEIKR
modifications: vcMMAE (Val-Cit linker with monomethyl auristatin E) on cysteine thiols freed by partial reduction with TCEP; p about 3.6 drugs per antibody; positions not given
24P4C12 (human) [1]
  MFI: 114 MFI
24P4C12 (human) [2]
  Kd: 1.05 nM
24P4C12 (human) [3]
  MFI: 86 MFI
24P4C12 (human) [4]
  MFI: 70 MFI
24P4C12 (human) [5]
  MFI: 28 MFI
24P4C12 (human) [6]
  MFI: 108 MFI
24P4C12 (human) [7]
  MFI: 9 MFI
24P4C12 (human) [8]
  MFI: 116 MFI
24P4C12 (human) [9]
  MFI: 15 MFI
24P4C12 (human) [10]
  MFI: 97 MFI
24P4C12 (human) [11]
  MFI: 7 MFI
24P4C12 (human) [12]
  MFI: 54 MFI
